System: peptide library, one residue held at a place counted from the S/T acceptor
Test: relative phosphorylation of the sub-library (ratio to the mean residue at this position); higher = residue favoured
Settings: human
How it was run: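 In 384-well plates, purified recombinant kinases (human or orthologue constructs) were incubated for 90 min under kinase-specific conditions with 50 μM biotinylated degenerate peptide sub-libraries and 50 μM ATP spiked with γ-32P-ATP. Each sub-library fixed a single residue at one position around a central Ser/Thr. Relative sub-library phosphorylation, measured by phosphorimaging and densitometry of streptavidin membrane spots, is given as a ratio to the mean residue at that position.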

RPS6KA3, construct: Full length, sequence (P51812 whole entry, looked up): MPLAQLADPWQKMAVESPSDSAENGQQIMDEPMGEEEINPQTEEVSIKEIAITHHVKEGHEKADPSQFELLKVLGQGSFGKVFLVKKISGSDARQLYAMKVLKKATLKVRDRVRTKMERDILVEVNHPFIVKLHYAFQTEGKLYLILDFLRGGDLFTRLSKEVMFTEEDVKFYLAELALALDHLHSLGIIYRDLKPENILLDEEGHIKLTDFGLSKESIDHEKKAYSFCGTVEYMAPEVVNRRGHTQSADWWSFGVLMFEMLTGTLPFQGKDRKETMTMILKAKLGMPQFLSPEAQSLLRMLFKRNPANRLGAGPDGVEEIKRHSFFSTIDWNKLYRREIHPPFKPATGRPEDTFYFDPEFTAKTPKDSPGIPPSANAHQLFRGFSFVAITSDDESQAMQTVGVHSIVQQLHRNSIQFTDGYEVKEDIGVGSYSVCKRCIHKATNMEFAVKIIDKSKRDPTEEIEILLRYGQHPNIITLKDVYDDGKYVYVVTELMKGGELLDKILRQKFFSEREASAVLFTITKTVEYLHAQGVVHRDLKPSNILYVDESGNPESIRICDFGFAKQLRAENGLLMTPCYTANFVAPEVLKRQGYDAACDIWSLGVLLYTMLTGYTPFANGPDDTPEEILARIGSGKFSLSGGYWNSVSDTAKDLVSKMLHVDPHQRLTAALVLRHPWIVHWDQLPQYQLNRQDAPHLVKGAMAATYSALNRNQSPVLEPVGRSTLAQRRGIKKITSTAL
SGK1, construct: aa61-end, sequence (O00141 61-431, looked up): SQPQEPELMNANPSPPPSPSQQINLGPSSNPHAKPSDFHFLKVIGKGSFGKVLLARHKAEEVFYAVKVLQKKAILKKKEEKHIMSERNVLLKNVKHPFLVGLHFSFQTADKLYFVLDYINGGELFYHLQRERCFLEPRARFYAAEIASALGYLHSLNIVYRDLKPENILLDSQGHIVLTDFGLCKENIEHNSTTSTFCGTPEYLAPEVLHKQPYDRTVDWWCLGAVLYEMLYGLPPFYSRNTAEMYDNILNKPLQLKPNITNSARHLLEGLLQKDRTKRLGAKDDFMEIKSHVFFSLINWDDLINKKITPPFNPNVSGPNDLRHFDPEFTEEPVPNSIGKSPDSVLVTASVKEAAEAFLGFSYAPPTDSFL
RIPK4, construct: aa1-300, sequence (P57078 1-300, looked up): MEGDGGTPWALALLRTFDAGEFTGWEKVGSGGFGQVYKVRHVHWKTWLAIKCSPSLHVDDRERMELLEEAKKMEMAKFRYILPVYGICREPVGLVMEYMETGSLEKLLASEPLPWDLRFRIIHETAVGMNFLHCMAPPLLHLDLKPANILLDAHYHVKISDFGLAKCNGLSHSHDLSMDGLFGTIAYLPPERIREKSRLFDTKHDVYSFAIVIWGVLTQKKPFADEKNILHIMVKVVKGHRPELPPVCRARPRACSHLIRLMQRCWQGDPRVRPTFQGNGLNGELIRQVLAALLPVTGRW

RIPK4, construct: aa1-300 (from UniProt P57078)
relative phosphorylation
Settings | at +1 | at +2 | at +3 | at +4 | at -1 | at -2 | at -3 | at -4 | at -5
A fixed | 0.786 | 0.77 | 0.723 | 0.883 | 0.722 | 0.944 | 1.01 | 0.988 | 1.04
D fixed | 0.444 | 0.547 | 0.572 | 0.75 | 1.76 | 1.53 | 1.02 | 1.45 | 1.43
E fixed | 0.458 | 0.509 | 0.485 | 0.618 | 0.809 | 1.36 | 0.853 | 0.96 | 0.926
F fixed | 1.86 | 1.04 | 1.37 | 1.16 | 0.6 | 0.863 | 0.994 | 0.822 | 1.04
G fixed | 1.04 | 0.738 | 0.909 | 0.918 | 0.585 | 1.33 | 0.969 | 1.07 | 0.944
H fixed | 0.776 | 1.18 | 0.859 | 1.07 | 1.48 | 1.37 | 1.14 | 1.04 | 1.07
I fixed | 1.77 | 0.843 | 1.78 | 1.05 | 0.841 | 0.635 | 0.848 | 0.861 | 0.876
K fixed | 0.691 | 1.66 | 0.792 | 1.25 | 1.63 | 0.64 | 0.919 | 0.9 | 1.09
L fixed | 1.25 | 0.978 | 1.5 | 1.01 | 0.858 | 0.628 | 0.941 | 0.819 | 0.926
M fixed | 1.71 | 1.11 | 1.04 | 0.831 | 0.815 | 0.789 | 0.996 | 0.91 | 0.909
N fixed | 0.665 | 0.943 | 0.725 | 0.726 | 1.52 | 1.24 | 0.837 | 1.26 | 0.941
P fixed | 0.376 | 0.62 | 0.706 | 1.32 | 0.461 | 0.502 | 1.11 | 0.844 | 0.922
Q fixed | 1.19 | 0.924 | 0.779 | 0.802 | 1.02 | 0.898 | 0.976 | 0.888 | 0.856
R fixed | 1.11 | 2.28 | 0.932 | 1.29 | 1.33 | 0.986 | 1.43 | 0.936 | 1.03
V fixed | 1.26 | 0.815 | 1.09 | 0.798 | 1.01 | 0.618 | 0.723 | 0.874 | 0.866
W fixed | 0.781 | 0.988 | 1.45 | 1.41 | 0.59 | 1.06 | 1.24 | 1.39 | 1.24
Y fixed | 0.836 | 1.07 | 1.3 | 1.13 | 0.963 | 1.6 | 0.998 | 0.977 | 0.898
pThr fixed | 0.839 | 0.707 | 0.778 | 0.887 | 1.03 | 1.04 | 1.07 | 1.17 | 1.23
pTyr fixed | 0.524 | 0.726 | 0.725 | 0.802 | 0.897 | 0.817 | 0.967 | 0.967 | 1.09

RPS6KA3, construct: Full length (from UniProt P51812)
relative phosphorylation
Settings | at +1 | at +2 | at +3 | at +4 | at -1 | at -2 | at -3 | at -4 | at -5
A fixed | 0.876 | 1.48 | 0.988 | 1.03 | 0.917 | 0.555 | 0.652 | 1.08 | 0.961
D fixed | 0.617 | 1.08 | 1.48 | 1.39 | 0.636 | 0.658 | 0.452 | 0.62 | 0.501
E fixed | 0.97 | 0.833 | 1.58 | 1.24 | 0.466 | 0.617 | 0.402 | 0.76 | 0.4
F fixed | 0.848 | 0.548 | 0.78 | 0.679 | 0.709 | 0.568 | 0.327 | 0.682 | 0.703
G fixed | 0.704 | 1.17 | 1.21 | 1.17 | 1.13 | 0.85 | 0.555 | 1.15 | 1.01
H fixed | 1.16 | 1.34 | 1.14 | 0.914 | 1.01 | 0.979 | 0.566 | 0.911 | 0.892
I fixed | 1.2 | 0.77 | 0.666 | 0.826 | 0.652 | 0.615 | 0.373 | 0.834 | 0.762
K fixed | 1.16 | 1.08 | 0.972 | 1.17 | 1.49 | 2.6 | 1.7 | 1.8 | 2.04
L fixed | 0.927 | 0.732 | 0.905 | 0.652 | 0.906 | 0.976 | 0.37 | 0.811 | 0.944
M fixed | 1.1 | 0.727 | 0.722 | 0.828 | 0.933 | 0.614 | 0.291 | 0.99 | 0.736
N fixed | 0.957 | 0.985 | 0.827 | 0.902 | 1.02 | 0.708 | 0.464 | 0.855 | 0.719
P fixed | 0.432 | 0.677 | 0.997 | 1.6 | 2.36 | 0.457 | 0.785 | 0.863 | 0.951
Q fixed | 1.22 | 0.716 | 0.808 | 0.895 | 0.935 | 0.962 | 0.641 | 1.01 | 0.836
R fixed | 1.34 | 1.59 | 1.11 | 1.26 | 1.39 | 4.29 | 8.12 | 2.46 | 3.13
V fixed | 1.45 | 1.07 | 0.839 | 0.941 | 0.752 | 0.591 | 0.393 | 0.698 | 0.852
W fixed | 0.887 | 0.858 | 0.998 | 0.738 | 0.628 | 0.361 | 0.408 | 0.725 | 0.807
Y fixed | 1.15 | 1.34 | 0.979 | 0.762 | 1.06 | 0.601 | 0.498 | 0.753 | 0.748
pThr fixed | 1.89 | 1.03 | 1.64 | 2.38 | 0.318 | 0.319 | 0.343 | 0.719 | 0.648
pTyr fixed | 1.7 | 1.14 | 2.08 | 1.47 | 0.543 | 0.3 | 0.306 | 0.448 | 0.668

SGK1, construct: aa61-end (from UniProt O00141)
relative phosphorylation
Settings | at +1 | at +2 | at +3 | at +4 | at -1 | at -2 | at -3 | at -4 | at -5
A fixed | 0.603 | 1.03 | 0.911 | 1.01 | 0.815 | 1.22 | 0.388 | 1.06 | 0.955
D fixed | 0.457 | 0.581 | 1.1 | 0.881 | 0.63 | 0.242 | 0.147 | 0.679 | 0.427
E fixed | 0.461 | 0.537 | 1.14 | 1.03 | 0.483 | 0.227 | 0.157 | 0.749 | 0.453
F fixed | 2.32 | 0.768 | 0.975 | 0.795 | 0.768 | 0.493 | 0.16 | 0.613 | 0.62
G fixed | 0.766 | 1.06 | 1.33 | 1.17 | 1.73 | 0.758 | 0.268 | 1.04 | 0.948
H fixed | 0.889 | 1.6 | 1.35 | 1.33 | 1.25 | 0.946 | 0.757 | 1.01 | 0.99
I fixed | 1.45 | 1.18 | 0.784 | 0.863 | 0.395 | 0.28 | 0.145 | 0.641 | 0.7
K fixed | 0.861 | 0.906 | 1.17 | 1.05 | 1.38 | 3.57 | 1.4 | 1.98 | 2.38
L fixed | 1.22 | 1.27 | 0.975 | 0.702 | 0.751 | 0.401 | 0.149 | 0.699 | 0.617
M fixed | 1.49 | 0.948 | 0.833 | 0.936 | 1.05 | 0.335 | 0.157 | 0.838 | 0.736
N fixed | 0.881 | 1.13 | 0.976 | 1.22 | 1.52 | 0.55 | 0.245 | 0.825 | 0.852
P fixed | 0.859 | 0.94 | 0.921 | 1.31 | 1.25 | 0.388 | 0.296 | 1.17 | 0.882
Q fixed | 0.974 | 0.674 | 0.939 | 0.921 | 0.893 | 0.544 | 0.443 | 0.902 | 0.744
R fixed | 1.01 | 1.58 | 1.01 | 1.03 | 1.64 | 5.91 | 11.7 | 2.89 | 3.67
V fixed | 1.16 | 1.01 | 0.753 | 0.737 | 0.471 | 0.352 | 0.152 | 0.693 | 0.675
W fixed | 0.7 | 0.737 | 0.892 | 1.1 | 0.692 | 0.332 | 0.225 | 0.59 | 0.626
Y fixed | 0.906 | 1.05 | 0.934 | 0.912 | 1.28 | 0.452 | 0.219 | 0.625 | 0.721
pThr fixed | 0.747 | 0.655 | 0.926 | 1.36 | 0.306 | 0.367 | 0.24 | 0.711 | 0.556
pTyr fixed | 0.806 | 1.04 | 1.43 | 1.54 | 0.752 | 0.319 | 0.232 | 0.574 | 0.722

SRPK1, construct: Full length (from UniProt Q96SB4)
relative phosphorylation
Settings | at +1 | at +2 | at +3 | at +4 | at -1 | at -2 | at -3 | at -4 | at -5
A fixed | 0.85 | 1.23 | 0.682 | 1.04 | 1.12 | 1.65 | 0.811 | 1.21 | 1.51
D fixed | 0.273 | 1.46 | 0.499 | 1.13 | 0.486 | 1.63 | 0.506 | 0.682 | 0.77
E fixed | 0.377 | 1.33 | 0.412 | 0.886 | 0.589 | 0.981 | 0.363 | 0.734 | 0.686
F fixed | 0.387 | 0.626 | 0.424 | 0.741 | 0.476 | 0.637 | 0.297 | 0.713 | 1
G fixed | 0.942 | 1.03 | 0.911 | 1.12 | 0.959 | 1.34 | 0.634 | 1.14 | 1.28
H fixed | 0.563 | 1.61 | 0.697 | 0.988 | 1.2 | 1.72 | 0.454 | 0.956 | 0.954
I fixed | 0.607 | 0.588 | 0.46 | 0.823 | 0.554 | 0.51 | 0.372 | 0.736 | 0.796
K fixed | 1.55 | 1.14 | 1.43 | 1.47 | 2.19 | 1.34 | 1.02 | 1.61 | 1.58
L fixed | 0.698 | 0.623 | 0.46 | 0.781 | 0.741 | 0.429 | 0.326 | 0.725 | 0.788
M fixed | 0.62 | 0.715 | 0.499 | 0.773 | 0.723 | 0.5 | 0.302 | 0.823 | 0.892
N fixed | 0.613 | 1.15 | 0.796 | 1.05 | 1.02 | 1.19 | 0.433 | 0.962 | 0.867
P fixed | 4.75 | 1.34 | 1.69 | 1.36 | 1.9 | 1.03 | 0.6 | 1.38 | 1.01
Q fixed | 0.932 | 0.981 | 0.699 | 1.1 | 1.16 | 0.692 | 0.596 | 0.87 | 0.675
R fixed | 2.33 | 1.27 | 5.99 | 1.4 | 2.17 | 1.6 | 9.31 | 2.29 | 1.45
V fixed | 0.722 | 0.715 | 0.458 | 0.705 | 0.698 | 0.54 | 0.343 | 0.66 | 0.879
W fixed | 0.417 | 0.582 | 0.452 | 0.886 | 0.42 | 0.616 | 0.312 | 0.735 | 1.04
Y fixed | 0.378 | 0.607 | 0.439 | 0.745 | 0.572 | 0.594 | 0.322 | 0.771 | 0.829
pThr fixed | 0.489 | 1.26 | 0.585 | 1.19 | 0.548 | 0.681 | 0.51 | 0.772 | 0.765
pTyr fixed | 0.462 | 0.95 | 0.653 | 1.06 | 0.753 | 1.39 | 0.694 | 1.43 | 0.947

— the supplement of paper PMC9876800
